The values that follow come from patent US20250171549A1 (Amgen, published 2025).

The target of experiment [1] is T1, human CCR8 (human, UniProt P51685 1-355). The experiment is described as follows: cell-based or functional assay.
Experiment [2] addresses T1, human CCR8. The experiment is described as follows: cell-based or functional assay. This is another data set of the same source.
In experiment [3] the target is T2, cynomolgus monkey CCR8 (comprising threonine at position four) (cynomolgus monkey, UniProt O97665 1-356 (rhesus entry)).
T2 construct: also called Cyno CCR8; cynomolgus CCR8
The experiment is described as follows: flow cytometry titration on CHO cells. As for the experimental part:
(§1) Bound anti-CCR8 antibody molecules were detected with Alexa Fluor 647 conjugated Goat anti-Human IgG (H+L). Cells were subsequently stained with Zombie Violet viability dye, fixed with 4% PFA on ice, and detected by fluorescence cytometry. Equilibrium dissociation constant (Kd) values were calculated by non-linear regression with the one site specific binding evaluation tool of the GraphPad Prism software. “N.D.” means not detectable.

Experiment [4] deals with T3, cynomolgus monkey CCR8 (T4R; comprising arginine at position four) (cynomolgus monkey, UniProt O97665 1-356 (rhesus entry)).
T3 construct: Expressed on CHO cells; also called cy CCR8 (T4R); Cynomolgus monkey Mauritian origin T4R CCR8
T3 chain: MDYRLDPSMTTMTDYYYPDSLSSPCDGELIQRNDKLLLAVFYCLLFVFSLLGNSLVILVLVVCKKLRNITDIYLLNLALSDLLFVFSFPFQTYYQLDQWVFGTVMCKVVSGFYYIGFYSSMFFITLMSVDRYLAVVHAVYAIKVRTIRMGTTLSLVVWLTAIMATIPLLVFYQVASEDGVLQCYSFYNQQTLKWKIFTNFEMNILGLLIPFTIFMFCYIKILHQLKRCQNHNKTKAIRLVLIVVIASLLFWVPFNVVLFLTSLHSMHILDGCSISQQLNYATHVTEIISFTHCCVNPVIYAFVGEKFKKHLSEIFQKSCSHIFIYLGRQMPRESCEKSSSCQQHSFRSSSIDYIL
The experiment is described as follows: flow cytometry titration on CHO cells. The protocol:
as §1
In general terms: A flow cytometer gives signals particle by particle.

In experiment [5] the target is T3, cynomolgus monkey CCR8 (T4R; comprising …). The experiment is described as follows: flow cytometry titration on CHO cells; N.D. means not detectable. As for the experimental part:
as §1

Experiment [6] addresses T1, human CCR8. The experiment is described as follows: cell-based or functional assay. This is another data set of the same source.
Experiment [7] deals with T4, huCCR8 (1-12)-Nb (human, not fully specified (C-terminus); also: fused to nanobody, biotinylated in Fab assay).
T4 construct: Expressed in human cells; also called CCR8 peptide-Nb fusion; not shown: nanobody (Nb) fusion partner, any linker or tag to it, and the biotin site
T4 peptide: MDYTLDLSVTTV
The experiment is described as follows: BLI (Octet), mAb on anti-huIgG Fc sensor, peptide-Nb in solution. The protocol:
Binding affinities (KD equilibrium dissociation constant) and rate constants (kₐ association rate constant, kd dissociation rate constant) of an Antibody 1 Fab and CCR8-binding monoclonal antibodies (mAbs) of the present invention to a CCR8 1-12 epitope (SEQ ID NO: 82)-nanobody (Nb) fusion protein were measured using an OCTET® Biolayer Interferometry system (Sartorius AG, Göttingen, Germany). The CCR8-nanobody fusion proteins were expressed in human cells. For Fab binding, biotinylated CCR8 peptide-Nb fusions were captured on streptavidin SAX biosensors to loading levels between 2 and 4 nm and then incubated with a dilution series of the soluble Fab (top 100 nM, 6-point, 1:3 serial dilution) for 300 seconds followed by 500 seconds in buffer for dissociation. For mAb binding, mAbs were captured on an anti-huIgG Fc capture biosensor to 1 to 2 nm loading level and then incubated with a dilution series of non-biotinylated CCR8 peptide-Nb fusions (top 100 nM, 6-point, 1:3 serial dilution) for 300 seconds followed by 500 seconds in buffer for dissociation.
The OCTET® system acquires data over time (seconds) using a mechanism called Biolayer Interferometry; as proteins bind to biosensor tips, a sensitive binding signal in nm is measured by the instrument. All fiber optic tips were used once and then discarded, i.e., no regeneration. OCTET® buffer baselines, dissociation steps, and protein dilutions were made with OCTET® buffer (10 mM TRIS pH 7.5, 150 mM NaCl, 1 mM CaCl₂), 0.13% (v/v) Triton X-100 and 0.10 mg/mL BSA).
Raw data was processed with GeneData Screener v18 SPR package which uses the same data processing as the OCTET® instrument Data Analysis software (subtract average of two reference wells per column; Align Y-axis to baseline; Interstep correction align to dissociation; and Savitzky-Golay filtering). Each Fab or mAb interaction was grouped into its own sensorgram and globally fit with a 1:1 binding model to determine the association rate constant (kₐ; units M⁻¹ sec⁻¹) and the dissociation rate constant (kd; units sec⁻¹).
(In general: BLI is a label-free optical method that tracks binding on a fibre tip over time.)

Where no end group is shown, it is not given here.

T1 sequence (P51685 whole entry): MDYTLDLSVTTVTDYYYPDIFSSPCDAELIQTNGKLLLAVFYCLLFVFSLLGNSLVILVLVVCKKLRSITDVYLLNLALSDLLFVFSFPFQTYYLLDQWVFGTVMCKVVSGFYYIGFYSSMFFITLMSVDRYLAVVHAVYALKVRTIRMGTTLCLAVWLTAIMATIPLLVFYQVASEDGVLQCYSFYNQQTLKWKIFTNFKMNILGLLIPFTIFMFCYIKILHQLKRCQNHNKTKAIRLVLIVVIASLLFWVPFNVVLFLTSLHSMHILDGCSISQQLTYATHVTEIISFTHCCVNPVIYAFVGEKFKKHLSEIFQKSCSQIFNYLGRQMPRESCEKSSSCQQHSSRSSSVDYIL

B1: Antibody 2.2 IgG1 (LC: F2I_P51S_H53Q_L103V_N148K, HC: K87N_S94N_V98A)(LC: Y25A, HC: A71L_D72K) (antibody, V domains shown)
VH: QVQLVESGGGVVQPGRSLRLSCAASGFTFSNYGMHWVRQAPGKGLEWVAVISYDGSNKFYLKSVKGRFTISRDNSKNTLYLQMNSLRAEDTAVYYCARAGGIGRFDYWGQGTLVTVSS
VL: DIVMTQTPLSLSVTPGQPASISCKASQSLLHSDGKTYLFWYLQKPGQSPQLLIYEVSNRFSGVPDRFSGSGSGTDFTLKISRVEAEDVGVYYCMQTLKLPLTFGGGTKVEIKR
notes: Afucosylated IgG1
As usually defined, the Kd is the equilibrium constant for the complex coming apart. For B1, in experiment [1], the “Percent Inhibition (IC50 nM) of CCL1-dependent chemotaxis of HUT78 cells” value amounted to 0.076 nM. In experiment [2], the “ADCC, Percent Non-Viable cells (EC50 pM), Donor 1” value was under 0.256 pM; the “ADCC, Percent Non-Viable cells (EC50 pM), Donor 2” value amounted to 6.04 pM; the “ADCC, Percent Non-Viable cells (EC50 pM), Donor 3” value was 1.8 pM. The molecule also had a Kd in experiment [3] of 0.399 nM. Further, the Kd in experiment [4] was 0.989 nM.

B2: Antibody 1.1 IgG1 (LC: H45Q_S51P) (antibody, V domains shown)
VH: EVQLVESGGGLVKPGGSLRLSCAASGFTFSNARMGWVRQAPGKGLEWVGRIKSKTEGGTRDYAAPVKGRFTISRDDSKNTLYLQMNSLKTEDTAVYYCTSYSGVWGQGTMVTVSS
VL: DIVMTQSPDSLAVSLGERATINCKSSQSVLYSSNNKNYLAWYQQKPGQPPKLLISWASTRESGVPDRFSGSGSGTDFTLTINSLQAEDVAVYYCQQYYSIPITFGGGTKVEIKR
notes: Afucosylated IgG1
B2: in experiment [2], the “ADCC, Percent Non-Viable cells (EC50 pM), Donor 1” value is under 0.256 pM; the “ADCC, Percent Non-Viable cells (EC50 pM), Donor 2” value was 8.13 pM; the “ADCC, Percent Non-Viable cells (EC50 pM), Donor 3” value is 2.2 pM. This molecule also yielded a dissociation constant Kd in experiment [3] of 0.172 nM. In addition, in experiment [5], the binding result was “no binding (tested: 0.005-100 nM)”.

B3: huCCR8(32360LC:K38R)_huIgG1z(mAb) (antibody, V domains shown)
VH: B2 VH
VL: not shown
notes: Afucosylated IgG1, HC without C-terminal lysine
For orientation: koff means the first-order rate constant of dissociation. By kon is commonly meant the second-order rate constant of association. With B3, in experiment [6], the “ADCC, Percent Non-Viable cells (EC50 pM), Donor 8” value stood at 3 pM and the “ADCC, Percent Non-Viable cells (EC50 pM), Donor 9” value turned out to be 2.7 pM. In experiment [7], this molecule gave a Kd of 60.6 nM, an off-rate (koff) of 0.024 s⁻¹ and an on-rate constant (kon) of 397000 M⁻¹ s⁻¹.
